Each block holds one molecule with its values, some of them ahead of it.
Assays:
Type in all cases: biochemical
[1] = Xylanase activity on birch xylan; settings: purified cellobiohydrolases, 50° C., pH 5.0
Method: (§1) The specific activity of the preparations was determined using 4-methylumbelliferyl-β-D-lactoside (MUL), 4-methylumbelliferyl-β-D-cellobioside (MUG2) or 4-methylumbelliferyl-β-D-cellotrioside (MUG3) as substrate (van Tilbeurgh et al., 1988) in 0.05 M sodium citrate buffer pH 5 at 50° C. for 10 min. Endoglucanase and xylanase activities were determined by standard procedures (according to IUPAC, 1987) using carboxymethyl cellulose (CMC) and birch glucuronoxylan (Bailey et al., 1992) as substrates. Specific activity against Avicel was calculated on the basis of reducing sugars formed in a 24 h reaction at 50° C., pH 5.0, with 1% substrate and 0.25 μM enzyme dosage. The protein content of the purified enzyme preparations was measured according to Lowry et al., 1951. To characterize the end products of hydrolysis, soluble sugars liberated in 24 h hydrolysis experiment, as described above, were analysed by HPLC (Dionex). Purified cellobiohydrolase I (CBHI/Cel7A) of Trichoderma reesei was used as a reference.
Acremonium thermophilum ALKO4245 was grown as described in Example 1. The culture supernatant was incubated at 70° C. for 24 hours after which, it was concentrated by ultrafiltration. The pure xylanase was obtained by sequential purification with hydrophobic interaction and cation exchange chromatography followed by gel filtration. The xylanase activity was determined using birch xylan as substrate (procedure of IUPAC 1987). Protein was assayed by BioRad Protein Assay Kit (Bio-Rad Laboratories) using bovine serum albumin as standard.
Thermoascus aurantiacus ALKO4242 was grown as described in Example 1. The pure xylanase was obtained by sequential purification with hydrophobic interaction, anion, and cation exchange chromatography followed by gel filtration. The xylanase activity was determined using birch xylan as substrate (procedure of IUPAC 1987). Protein was assayed by BioRad Protein Assay Kit (Bio-Rad Laboratories) using bovine serum albumin as standard.

[2] = Endoglucanase activity on carboxymethyl cellulose; settings: purified cellobiohydrolases, 50° C., pH 5.0
Method: as §1
(§2) Acremonium thermophilum ALKO4245 was grown as described in Example 1. The culture supernatant was incubated at 70° C. for 24 hours after which it was concentrated by ultrafiltration. The pure endoglucanase was obtained by sequential purification with hydrophobic interaction and cation exchange chromatography followed by gel filtration. The endoglucanase activity of the fractions collected during purification was determined using carboxymethyl cellulose (CMC) as substrate (procedure of IUPAC 1987). Protein content was measured by BioRad Assay Kit (Bio-Rad Laboratories) using bovine serum albumine as standard.
as §2, with “Thermoascus aurantiacus ALKO4242 was” for “Acremonium thermophilum ALKO4245 was”, “1.” for “1. The culture supernatant was incubated at 70° C. for 24 hours after which it was concentrated by ultrafiltration.”, “and anion” for “and cation”

[3] = Specific activity on MUG2; settings: purified cellobiohydrolases, 50° C., pH 5.0
Method: as §1

[4] = Specific activity on MUG3; settings: purified cellobiohydrolases, 50° C., pH 5.0
Method: as §1

[5] = Specific activity on MUL; settings: purified cellobiohydrolases, 50° C., pH 5.0
Method: as §1

[6] = Specific activity against Avicel; settings: 50° C., pH 5.0, 24 h, 1% substrate, 0.25 μM enzyme
Method: as §1

[7] = Thermal stability of purified cellobiohydrolases; settings: 0.1% BSA, pH 5.0, 60 min, MUL substrate
Method: Thermal stability of the purified cellobiohydrolases was determined at different temperatures. The reaction was performed in the presence of 0.1% BSA at pH 5.0 for 60 min using 4-methylumbelliferyl-β-D-lactoside as substrate. C. thermophilum ALKO4265 CBH/Cel7A and A. thermophilum ALKO4245 CBH/Cel7A were stable up to 65° and 60° C., respectively. The T. reesei reference enzyme (CBHI/Cel7A) retained 100% of activity up to 55° C.

[8] = Hydrolysis with CBH enzyme mixtures, Avicel; settings: additional enzymes EGII, bG; 48 h, 45° C., pH 5.0
Method: (§3) The performance of the purified recombinant cellobiohydrolases was evaluated in the hydrolysis studies with purified T. reesei enzymes. Hydrolysis was carried out with controlled mixtures of purified enzymes on several pre-treated substrates. […] In addition, pure T. reesei cellulases (purified as described by Suurnäkki et al., 2000) were used in the enzyme mixtures. The cellobiohydrolases used in the experiment were:
(§4) Each CBH/Cel7 to be tested (dosage 14.5 mg/g dry matter of substrate) was used either together with EGII/Cel5A of T. reesei (3.6 mg/g) or with a mixture containing T. reesei EGI/Cel7B (1.8 mg/g), EGII/Cel5A (1.8 mg/g), xylanase pI 9 (Tenkanen et al. 1992) (5000 nkat/g) and acetyl xylan esterase (AXE) (Sundberg and Poutanen, 1991) (250 nkat/g). All mixtures were supplemented with additional β-glucosidase from a commercial enzyme preparation Novozym 188 (176 nkat/g d.w.). Triplicate tubes containing the enzyme mixture and 10 mg (dry matter)/ml of the substrate suspended in 0.05 M sodium acetate were incubated in mixing by magnetic stirring at 45° C. for 48 h. Reference samples with inactivated enzymes and corresponding substrates were also prepared. The release of hydrolysis products was measured as reducing sugars with DNS method using glucose as standard (Table 30).
Crystalline cellulose (Avicel)

[9] = Hydrolysis with CBH enzyme mixtures, spruce; settings: additional enzymes EGII, bG; 48 h, 45° C., pH 5.0
Method: as §3, §4
Washed steam pre-treated spruce fibre (impregnation with 3% w/w SO2 for 20 min, followed by steam pre-treatment at 215° C. for 5 min), dry matter 25.9% (SPRUCE).

[10] = Hydrolysis with CBH enzyme mixtures, corn stover; settings: additional enzymes EGII, bG, 48 h, 45° C., pH 5.0
Method: as §3, §4
Washed wet oxidized corn stover fibre (WOCS).

[11] = Hydrolysis with CBH enzyme mixtures, willow; settings: additional enzymes EGII, bG, 48 h, 45° C., pH 5.0
Method: as §3, §4
Washed steam pre-treated willow fibre (pre-treatment for 14 min at 210° C.), dry matter 23.0% (WILLOW).

[12] = pH optimum of recombinant CBH/Cel7 proteins; settings: McIlvaine buffer, pH range 3.0-8.0, MUL, 50° C., 10 min
Method: The recombinant CBH/Cel7 enzyme preparations were characterized in terms of pH optimum and thermal stability. The pH optimum of the recombinant CBH/Cel7 proteins from Thermoascus aurantiacus, Chaetomium thermophilum, and Acremonium thermophilum were determined in the universal McIlvaine buffer within a pH range of 3.0-8.0 using 4-methylumbelliferyl-β-D-lactoside (MUL) as a substrate (FIG. 3A). The pH optimum for Ct Cel7A and At Cel7A enzymes is at 5.5, above which the activity starts to gradually drop. The pH optimum of the recombinant crude Ta Cel7A is at 5.0 (FIG. 3A). Thermal stability of the recombinant Cel7 enzymes was determined by measuring the MUL activity in universal McIlvaine buffer at the optimum pH with reaction time of 1 h.

Hydrolysis products as reducing sugars, Avicel [8]: 4.7 mg/mL
Hydrolysis products as reducing sugars, SPRUCE [9]: 2.9 mg/mL
Hydrolysis products as reducing sugars, WOCS ([10]; EGI, XYL, AXE): 6.0 mg/mL
Hydrolysis products as reducing sugars, WOCS [10]: 2.9 mg/mL
Hydrolysis products as reducing sugars, WILLOW ([11]; EGI, XYL, AXE): 4.1 mg/mL
Hydrolysis products as reducing sugars, WILLOW [11]: 2.9 mg/mL
B1: Tr Cel7A: purified cellobiohydrolase I (CBHI/Cel7A) of Trichoderma reesei used as a reference (protein, UniProt P62694 18-513, looked up)
Exoglucanase 1: QSACTLQSETHPPLTWQKCSSGGTCTQQTGSVVIDANWRWTHATNSSTNCYDGNTWSSTLCPDNETCAKNCCLDGAAYASTYGVTTSGNSLSIGFVTQSAQKNVGARLYLMASDTTYQEFTLLGNEFSFDVDVSQLPCGLNGALYFVSMDADGGVSKYPTNTAGAKYGTGYCDSQCPRDLKFINGQANVEGWEPSSNNANTGIGGHGSCCSEMDIWEANSISEALTPHPCTTVGQEICEGDGCGGTYSDNRYGGTCDPDGCDWNPYRLGNTSFYGPGSSFTLDTTKKLTVVTQFETSGAINRYYVQNGVTFQQPNAELGSYSGNELNDDYCTAEEAEFGGSSFSDKGGLTQFKKATSGGMVLVMSLWDDYYANMLWLDSTYPTNETSSTPGAVRGSCSTSSGVPAQVESQSPNAKVTFSNIKFGPIGSTGNPSGGNPPGGNRGTTTTRRPATTTGSSPGPTQSHYGQCGGIGYSGPTVCASGTTCQVLNPYYSQCL
Specific activity, Xylan [1]: 1.3 nkat/mg
Specific activity, CMC [2]: 1.0 nkat/mg
Specific activity, MUG2 [3]: 4.3 nkat/mg
Specific activity, MUG3 [4]: 0.9 nkat/mg
Specific activity, MUL [5]: 21.9 nkat/mg
Specific activity, Avicel [6]: 0.6 nkat/mg
Thermal stability: temperature up to which stable / 100% of activity retained [7]: up to 55 °C

Hydrolysis products as reducing sugars, Avicel [8]: 6.0 mg/mL
Hydrolysis products as reducing sugars, SPRUCE [9]: 2.6 mg/mL
Hydrolysis products as reducing sugars, WOCS ([10]; EGI, XYL, AXE): 5.6 mg/mL
Hydrolysis products as reducing sugars, WOCS [10]: 3.4 mg/mL
Hydrolysis products as reducing sugars, WILLOW ([11]; EGI, XYL, AXE): 4.0 mg/mL
Hydrolysis products as reducing sugars, WILLOW [11]: 2.6 mg/mL
B2: Ct Cel7A: cellobiohydrolase of Chaetomium thermophilum ALKO4265, gene Ct cel7A, amino acid SEQ ID NO: 8, with CBD (protein)
chain: MMYKKFAALAALVAGASAQQACSLTAENHPSLTWKRCTSGGSCSTVNGAVTIDANWRWTHTVSGSTNCYTGNQWDTSLCTDGKSCAQTCCVDGADYSSTYGITTSGDSLNLKFVTKHQYGTNVGSRVYLMENDTKYQMFELLGNEFTFDVDVSNLGCGLNGALYFVSMDADGGMSKYSGNKAGAKYGTGYCDAQCPRDLKFINGEANVGNWTPSTNDANAGFGRYGSCCSEMDVWEANNMATAFTPHPCTTVGQSRCEADTCGGTYSSDRYAGVCDPDGCDFNAYRQGDKTFYGKGMTVDTNKKMTVVTQFHKNSAGVLSEIKRFYVQDGKIIANAESKIPGNPGNSITQEYCDAQKVAFSNTDDFNRKGGMAQMSKALAGPMVLVMSVWDDHYANMLWLDSTYPIDQAGAPGAERGACPTTSGVPAEIEAQVPNSNVIFSNIRFGPIGSTVPGLDGSNPGNPTTTVVPPASTSTSRPTSSTSSPVSTPTGQPGGCTTQKWGQCGGIGYTGCTNCVAGTTCTQLNPWYSQCL
Specific activity, Xylan [1]: 6.7 nkat/mg
Specific activity, CMC [2]: 5.5 nkat/mg
Specific activity, MUG2 [3]: 18.9 nkat/mg
Specific activity, MUG3 [4]: 1.5 nkat/mg
Specific activity, MUL [5]: 54.0 nkat/mg
Specific activity, Avicel [6]: 1.4 nkat/mg
Thermal stability: temperature up to which stable / 100% of activity retained [7]: up to 65 °C
pH optimum [12]: 5.5
